Reference: patent publication US11230581B2, “Peptides and combination of peptides for use in immunotherapy against ovarian cancer and other cancers” (Immatics Biotechnologies GmbH, priority 2015, dated 2022)

target: HLA-A*02:01 (Homo sapiens, UniProt P04439, D140Y/D185E/D98H/E176V/E277Q/G131W/G231S/I119V/I121R/I166T/I218V/L300P/L318F/N151K/N90K/P208A/P217A/Q86G/Q94H/R138H/R169H/T345S); experiment: MHC binding assay (UV-ligand exchange, β2m ELISA, peptide exchange yield); conditions: binding of HLA-class I restricted peptides to HLA-A*02:01, UV-ligand exchange
Text: Candidate peptides for T cell based therapies according to the present invention were further tested for their MHC binding capacity (affinity). The individual peptide-MHC complexes were produced by UV-ligand exchange, where a UV-sensitive peptide is cleaved upon UV-irradiation, and exchanged with the peptide of interest as analyzed. Only peptide candidates that can effectively bind and stabilize the peptide-receptive MHC molecules prevent dissociation of the MHC complexes. To determine the yield of the exchange reaction, an ELISA was performed based on the detection of the light chain (β2m) of stabilized MHC complexes. The assay was performed as generally described in Rodenko et al. (Rodenko et al., 2006).
96 well MAXISorp plates (NUNC) were coated over night with 2 ug/ml streptavidin in PBS at room temperature, washed 4× and blocked for 1h at 37° C. in 2% BSA containing blocking buffer. […] Peptide-MHC monomers of the UV-exchange reaction were diluted 100 fold in blocking buffer. Samples were incubated for 1 h at 37° C., washed four times, incubated with 2 ug/ml HRP conjugated anti-β2m for 1h at 37° C., washed again and detected with TMB solution that is stopped with […]. Absorption was measured at 450 nm. Candidate peptides that show a high exchange yield (preferably higher than 50%, most preferred higher than 75%) are generally preferred for a generation and production of antibodies or fragments thereof, and/or T cell receptors or fragments thereof, as they show sufficient avidity to the MHC molecules and prevent dissociation of the MHC complexes.

Row | Substance | Peptide exchange (MHC class I binding score, peptide exchange yield)
1 | 1 (SLMEPPAVLLL; listed as Homo sapiens) [compound 1] | “+++” (≥50 = +++)
2 | 2 (SLLEADPFL; listed as Homo sapiens) [compound 2] | “+++” (≥50 = +++)
3 | 3 (SLASKLTTL; listed as Homo sapiens) [compound 3] | “++++” (≥75% = ++++)
4 | 4 (GIMEHITKI; listed as Homo sapiens) [compound 4] | “++++” (≥75% = ++++)
5 | 5 (HLTEVYPEL; listed as Homo sapiens) [compound 5] | “+++” (≥50 = +++)
6 | 6 (VLVSDGVHSV; listed as Homo sapiens) [compound 6] | “+++” (≥50 = +++)
7 | 7 (SLVGLLLYL; listed as Homo sapiens) [compound 7] | “++++” (≥75% = ++++)
8 | 8 (FTLGNVVGMYL; listed as Homo sapiens) [compound 8] | “++++” (≥75% = ++++)
9 | 9 (GAAKDLPGV; listed as Homo sapiens) [compound 9] | “++” (≥20% = ++)
10 | 10 (FLATFPLAAV; listed as Homo sapiens) [compound 10] | “++++” (≥75% = ++++)
11 | 11 (KIFEMLEGV; listed as Homo sapiens) [compound 11] | “+++” (≥50 = +++)
12 | 12 (SLWPDPMEV; listed as Homo sapiens) [compound 12] | “+++” (≥50 = +++)
13 | 13 (YLMDESLNL; listed as Homo sapiens) [compound 13] | “+++” (≥50 = +++)
14 | 14 (AAYGGLNEKSFV; listed as Homo sapiens) [compound 14] | “+++” (≥50 = +++)
15 | 15 (VLLTFKIFL; listed as Homo sapiens) [compound 15] | “++” (≥20% = ++)
16 | 16 (VLFQGQASL; listed as Homo sapiens) [compound 16] | “+++” (≥50 = +++)
17 | 17 (GLLPGDRLVSV; listed as Homo sapiens) [compound 17] | “+++” (≥50 = +++)
18 | 18 (YLVAKLVEV; listed as Homo sapiens) [compound 18] | “++” (≥20% = ++)
19 | 19 (FMVDNEAIYDI; listed as Homo sapiens) [compound 19] | “++++” (≥75% = ++++)
20 | 20 (RMIEYFIDV; listed as Homo sapiens) [compound 20] | “+++” (≥50 = +++)
21 | 21 (VLDELDMEL; listed as Homo sapiens) [compound 21] | “++” (≥20% = ++)

Further lines, results first:

Row | Peptide exchange (MHC class I binding score, peptide exchange yield) | Substance
22 | “+++” (≥50 = +++) | 22 (IMEENPGIFAV; listed as Homo sapiens) [compound 22]
23 | “+++” (≥50 = +++) | 23 (VLLDDIFAQL; listed as Homo sapiens) [compound 23]
24 | “++” (≥20% = ++) | 24 (SLSDGLEEV; listed as Homo sapiens) [compound 24]
25 | “+++” (≥50 = +++) | 25 (FLPDEPYIKV; listed as Homo sapiens) [compound 25]
26 | “+++” (≥50 = +++) | 26 (ALLELAEEL; listed as Homo sapiens) [compound 26]
27 | “+++” (≥50 = +++) | 27 (ILADIVISA; listed as Homo sapiens) [compound 27]
28 | “+++” (≥50 = +++) | 28 (QLLDETSAITL; listed as Homo sapiens) [compound 28]
29 | “+++” (≥50 = +++) | 29 (KMLGIPISNILMV; listed as Homo sapiens) [compound 29]
30 | “+++” (≥50 = +++) | 30 (LILDWVPYI; listed as Homo sapiens) [compound 30]
31 | “++” (≥20% = ++) | 31 (YLAPELFVNV; listed as Homo sapiens) [compound 31]
32 | “++” (≥20% = ++) | 32 (KLDDLTQDLTV; listed as Homo sapiens) [compound 32]
33 | “++” (≥20% = ++) | 33 (VLLSLLEKV; listed as Homo sapiens) [compound 33]
34 | “+++” (≥50 = +++) | 34 (ILVEADSLWVV; listed as Homo sapiens) [compound 34]
35 | “+++” (≥50 = +++) | 35 (KINDTIYEV; listed as Homo sapiens) [compound 35]
36 | “++” (≥20% = ++) | 36 (YVLEDLEVTV; listed as Homo sapiens) [compound 36]
37 | “+++” (≥50 = +++) | 38 (FLLEDDIHVS; listed as Homo sapiens) [compound 38]
38 | “+++” (≥50 = +++) | 39 (SVAPNLPAV; listed as Homo sapiens) [compound 39]
39 | “+++” (≥50 = +++) | 40 (TLLVKVFSV; listed as Homo sapiens) [compound 40]
40 | “+++” (≥50 = +++) | 41 (SLMPHIPGL; listed as Homo sapiens) [compound 41]
41 | “+++” (≥50 = +++) | 42 (VLLQKIVSA; listed as Homo sapiens) [compound 42]
42 | “++” (≥20% = ++) | 43 (VLSSLEINI; listed as Homo sapiens) [compound 43]
43 | “++” (≥20% = ++) | 44 (ILDPISSGFLL; listed as Homo sapiens) [compound 44]
44 | “+++” (≥50 = +++) | 45 (SLWQDIPDV; listed as Homo sapiens) [compound 45]
45 | “+++” (≥50 = +++) | 46 (ILTEENIHL; listed as Homo sapiens) [compound 46]
46 | “++” (≥20% = ++) | 47 (ILLSVPLLVV; listed as Homo sapiens) [compound 47]
47 | “+++” (≥50 = +++) | 48 (ALAELYEDEV; listed as Homo sapiens) [compound 48]
48 | “+++” (≥50 = +++) | 49 (YLPAVFEEV; listed as Homo sapiens) [compound 49]
49 | “+++” (≥50 = +++) | 50 (SLSELEALM; listed as Homo sapiens) [compound 50]
50 | “++++” (≥75% = ++++) | 51 (LLPDLEFYV; listed as Homo sapiens) [compound 51]
51 | “++++” (≥75% = ++++) | 52 (FLLAHGLGFLL; listed as Homo sapiens) [compound 52]
